# In article PMC10641296:
# Target: SCM-2 on the surface of S. canis strain IMT40096 (Streptococcus canis (endogenous in strain IMT40096))
# Assay: flow cytometry on cells; S. canis bacteria (mid-exponential phase) incubated with FITC-labeled human fibrinogen in PBS, 30 min at 37°C, fixed; MFI normalized to SCM-1 S. canis G361; scm2 knock-out of IMT40096 as control
substance,measurement,value
FITC-labeled human fibrinogen (from UniProt P02671 36-866; P02675 45-491; P02679 27-453) (complex),fold of fluorescence against S. canis G361,> 3 fold of G361
